# Measurements taken from patent US20240327503A1.
# Biological target: SARS-CoV-2 spike ECD S-2P (SARS-CoV-2) (UniProt P0DTC2)
substance,measurement,value
CR3022 (antibody),EC50,3.6 nM
